Reference: patent EP3636320A1 (Numab Therapeutics AG, dated 2020)
Where a chain is given by its changes, count along the chain named.

B1: PRO1480 (other)
chain: DIQMTQSPASLSASVGDRVTITCQASQSIGTYLAWYQQKPGKPPKLLIYRAFILASGVPSRFSGSGSGTDFTLTISSLQPEDFATYYCQSNFYSDSTTIGPNAFGTGTKVTVLGGGGGSEVQLVESGGGLVQPGGSLRLSCAASGFSFSANYYPCWVRQAPGKGLEWIGCIYGGSSDITYDANWTKGRFTISRDNSKNTVYLQMNSLRAEDTAVYYCARSAWYSGWGGDLWGQGTLVTVSSGGGGSGGGGSGGGGSGGGGSIQMTQSPSSLSASVGDRVTITCQASQSISNRLAWYQQKPGKAPKLLIYSASTLASGVPSRFSGSGSGTDFTLTISSLQPEDFATYYCQSTYYGNDGNAFGTGTKVTVLGGGGGSEVQLVESGGGLVQPGGSLRLSCAASGFSFNSDYWIYWVRQAPGKGLEWIASIYGGSSGNTQYASWAQGRFTISRDNSKNTVYLQMNSLRAEDTAVYFCARGYVDYGGATDLWGQGTLVTVSSGGGGSGGGGSIQMTQSPSSLSASVGDRVTITCQSSESVYSNNQLSWYQQKPGQPPKLLIYDASDLASGVPSRFSGSGSGTDFTLTISSLQPEDFATYYCAGGFSSSSDTAFGGGTKLTVLGGGGGSGGGGSGGGGSGGGGSEVQLVESGGGLVQPGGSLRLSCAASGFSLSSNAMGWVRQAPGKGLEYIGIISVGGFTYYASWAKGRFTISRDNSKNTVYLQMNSLRAEDTATYFCARDRHGGDSSGAFYLWGQGTLVTVSS
B2: PRO1481 (other)
chain: B1 chain with V121S, Y216F, Q233P, I262F, M264L, A303P

Target: human CD137 expressed on Jurkat cells (human, UniProt Q07011 24-255)
Experiment: cell-based or functional assay

Row | IC50 (ng/ml), activation of NF-kB reporter gene, HCC827 +IFNg, 6 h, with HSA | IC50 (ng/ml), activation of NF-kB reporter gene, HCC827 +IFNg, 24 h, with HSA | Binder
1 | 6.44 ng/mL | 4.67 ng/mL | B1
2 | 7.22 ng/mL | 5.51 ng/mL | B2
